Source: patent US20220281976A1 (Alector, published 2022)
Numbering of substitutions follows the chain as printed.

T1: mouse CD33 Fc fusion protein (mouse, UniProt Q63994 18-240, limits assumed)
T1 construct: also called mCD33-Fc
T1 sequence: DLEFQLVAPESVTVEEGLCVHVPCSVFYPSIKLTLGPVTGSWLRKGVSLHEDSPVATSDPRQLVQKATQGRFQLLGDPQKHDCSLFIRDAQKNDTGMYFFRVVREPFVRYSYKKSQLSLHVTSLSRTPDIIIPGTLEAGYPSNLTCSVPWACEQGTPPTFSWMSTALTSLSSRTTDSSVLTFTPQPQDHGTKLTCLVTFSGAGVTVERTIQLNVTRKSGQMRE

B1: C-79 (antibody, V domains shown)
VH: QVQLVQSGAEVKKPGASVKVSCKASGYTFTSYYIHWVRQAPGQGLEWMGIINPSGGSTSYAQKFQGRVTMTRDTSTSTVYMELSSLRSEDTAVYYCARVSRQQHSMDVWGQGTTVTVSS
VL: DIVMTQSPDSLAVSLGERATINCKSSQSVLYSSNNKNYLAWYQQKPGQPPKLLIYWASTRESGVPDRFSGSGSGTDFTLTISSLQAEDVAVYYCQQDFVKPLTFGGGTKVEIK
notes: human IgG1
B2: C-72 (antibody, V domains shown)
VH: QVQLVESGGGVVQPGRSLRLSCAASGFTFSSYGMHWVRQAPGKGLEWVAVIWYDGSNKYYADSVKGRFTISRDNSKNTLYLQMNSLRAEDTAVYYCAKEGGTYSDDFDLWGGGTLVTVSS
VL: DIQMTQSPSSVSASVGDRVTITCRASQGISSWLAWYQQKPGKAPKLLIYAASSLQSGVPSRFSGSGSGTDFTLTISSLQPEDFATYYCQQASSFPLTFGGGTKVEIK
notes: human IgG1
B3: C-7 (antibody, V domains shown)
VH: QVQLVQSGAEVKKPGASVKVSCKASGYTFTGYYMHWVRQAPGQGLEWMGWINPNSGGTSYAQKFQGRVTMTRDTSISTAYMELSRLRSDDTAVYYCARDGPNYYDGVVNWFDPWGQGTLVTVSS
VL: B2 VL with S10T, V11L, G28S, A50D, Q55E, D70E, E81D, S92R, F94Y, L96P
notes: human IgG1
B4: C-61 (antibody, V domains shown)
VH: QVQLVQSGAEVKKPGASVKVSCKASGYTFTSYYMHWVRQAPGQGLEWMGVINPSGGSTSYAQKFQGRVTMTRDTSTSTVYMELSSLRSEDTAVYYCARESQYYDVHGMDVWGQGTTVTVSS
VL: EIVLTQSPGTLSLSPGERATLSCRASQSVSSSYLAWYQQKPGQAPRLLIYGASSRATGIPDRFSGSGSGTDFTLTISRLEPEDFAVYYCQQYYGLPLTFGGGTKVEIK
notes: human IgG1
B5: C-68 (antibody, V domains shown)
VH: QVQLQESGPGLVKPSQTLSLTCTVSGGSISSGGYYWSWIRQHPGKGLEWIGNIYYSGSTYYNPSLKSRVTISVDTSKNQFSLKLSSVTAADTAVYYCARDLPNSGSPGSDYFDYWGQGTLVTVSS
VL: B4 VL with Y93D, G94N, L95Y, L97P
notes: human IgG1
B6: C-75 (antibody, V domains shown)
VH: EVQLLESGGGLVQPGGSLRLSCAASGFTFSSYAMSWVRQAPGKGLEWVSAISASGGSTYYADSVKGRFTISRDNSKNTLYLQMNSLRAEDTAVYYCARLHMTGTASSGMDVWGQGTTVTVSS
VL: DIVMTQSPDSLAVSLGERATINCKSSQSVLYSSNNKNYLAWYQQKPGQAPRLLIYGASSRATGIPDRFSGSGSGTDFTLTISRLEPEDFAVYYCQQDYSSPLTFGGGTKVEIK
notes: human IgG1
B7: C-77 (antibody, V domains shown)
VH: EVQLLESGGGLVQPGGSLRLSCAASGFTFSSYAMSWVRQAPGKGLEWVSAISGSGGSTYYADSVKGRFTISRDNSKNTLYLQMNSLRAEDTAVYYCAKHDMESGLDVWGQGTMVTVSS
VL: B6 VL with M4L, S99V
notes: human IgG1
B8: C-76 (antibody, V domains shown)
VH: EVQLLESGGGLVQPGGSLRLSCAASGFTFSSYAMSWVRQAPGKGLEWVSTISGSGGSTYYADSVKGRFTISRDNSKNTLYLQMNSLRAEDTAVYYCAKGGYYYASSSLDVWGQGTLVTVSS
VL: B6 VL with S99N
notes: human IgG1
B9: C-69 (antibody, V domains shown)
VH: EVQLVESGGGLVQPGGSLRLSCAASGFTFSSYWMSWVRQAPGKGLEWVANIKSDGSEKYYVDSVKGRFTISRDNAKNSLYLQMNSLRAEDTAVYYCARAETYQLSSAFDIWGQGTMVTVSS
VL: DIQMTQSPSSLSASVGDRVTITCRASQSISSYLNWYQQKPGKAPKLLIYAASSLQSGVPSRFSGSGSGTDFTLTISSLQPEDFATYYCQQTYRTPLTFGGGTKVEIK
notes: human IgG1
B10: C-87 (antibody, V domains shown)
VH: QLQLQESGPGLVKPSETLSLTCTVSGGSISSSSYAWGWIRQPPGKGLEWIGSIYYSGSTYYNPSLKSRVTISVDTSKNQFSLKLSSVTAADTAVYYCARDPLYPLTPYGMDVWGQGTTVTVSS
VL: EIVMTQSPATLSLSPGERATLSCRASQSVSSYLAWYQQKPGQAPRLLIYDASNRATGIPARFSGSGSGTDFTLTISSLEPEDFAVYYCQQLSVFPPTFGGGTKVEIK
notes: human IgG1
B11: C-84 (antibody, V domains shown)
VH: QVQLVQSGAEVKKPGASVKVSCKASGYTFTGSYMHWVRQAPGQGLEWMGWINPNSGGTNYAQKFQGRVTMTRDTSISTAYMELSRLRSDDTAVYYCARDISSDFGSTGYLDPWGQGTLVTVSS
VL: DIQMTQSPSTLSASVGDRVTITCRASQSISSWLAWYQQKPGKAPKLLIYDASSLESGVPSRFSGSGSGTEFTLTISSLQPDDFATYYCQQVNRYPFTFGGGTKVEIK
notes: human IgG1
B12: C-6 (antibody, V domains shown)
VH: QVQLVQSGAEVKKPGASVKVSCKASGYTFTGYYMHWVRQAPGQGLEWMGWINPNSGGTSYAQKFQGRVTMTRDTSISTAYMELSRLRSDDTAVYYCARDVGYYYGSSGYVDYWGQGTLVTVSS
VL: DIQMTQSPSSVSASVGDRVTITCRASQGIDSWLAWYQQKPGKAPKLLIYAASSLQSGVPSRFSGSGSGTDFTLTISSLQPEDFATYYCQQASAHPPWTFGGGTKVEIK
notes: human IgG1

target: T2, human CD33 (human, UniProt P20138 18-364); experiment: flow cytometry, human primary T cells;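 also: binding of anti-CD33 antibodies at 10 ug/ml to human primary T cells, 1 h on ice, detected with PE-labelled secondary antibody, read as flow cytometry MFI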
T2 construct: CD33 on human primary dendritic cells, macrophages, monocytes and T cells and on CHO cells expressing recombinant human CD33; also called Siglec-3; hCD33
T2 sequence (P20138 18-364): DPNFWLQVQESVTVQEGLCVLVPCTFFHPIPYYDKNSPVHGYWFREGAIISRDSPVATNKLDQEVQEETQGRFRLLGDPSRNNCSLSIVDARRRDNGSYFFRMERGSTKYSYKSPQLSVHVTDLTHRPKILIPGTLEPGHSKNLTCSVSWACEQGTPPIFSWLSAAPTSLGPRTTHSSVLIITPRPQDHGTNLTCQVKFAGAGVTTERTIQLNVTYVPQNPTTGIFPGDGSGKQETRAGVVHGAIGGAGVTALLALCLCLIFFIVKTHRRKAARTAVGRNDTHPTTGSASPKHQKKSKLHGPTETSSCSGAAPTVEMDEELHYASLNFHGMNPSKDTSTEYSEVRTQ

Row | T cell MFI | Binder
1 | 228 | B1
2 | 330 | B2
3 | 52.5 | B3
4 | 242 | B4
5 | 561 | B5
6 | 399 | B6
7 | 263 | B7
8 | 185 | B8
9 | 318 | B9
10 | 246 | B10
11 | 95.8 | B11
12 | 46 | B12

target: T2, human CD33; experiment: flow cytometry, human primary dendritic cells;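 also: binding of anti-CD33 antibodies (10 ug/ml, 1 h on ice) to human primary dendritic cells, detected with a PE-labelled secondary antibody, reported as flow cytometry MFI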
Protocol: Initial characterization of CD33 antibodies involved determining their ability to bind CD33 expressed on a CHO cell line, on human primary monocytes, human primary macrophages, human primary dendritic cells, and on human primary T cells. Cells were harvested, plated at 10⁶/ml in a 96 well plate, and incubated in 100 ul PBS containing 2% FBS, 2 mM EDTA and 10 ug/ml Mab and Fc blocking reagent for 1 hour in ice. Cells were washed twice and incubated in 100 ul PBS containing 2% FBS, 2 mM EDTA and 5 ug/ml PE-conjugated secondary antibody for 30 minutes on ice. Cells were washed twice in cold PBS and analyze by flow cytometry on a BD FACS Canto. Data analysis and calculation of MFI values was performed with FlowJo (TreeStar) software version 10.0.7.

Row | DC MFI | Binder
13 | 43 | B1
14 | 742 | B2
15 | 814 | B3
16 | 1310 | B4
17 | 526 | B5
18 | 46 | B6
19 | 43 | B7
20 | 43 | B8
21 | 923 | B9
22 | 172 | B10
23 | 55 | B11
24 | 1040 | B12

target: T2, human CD33; experiment: cell-based or functional assay

Row | Percent CD33 Surface Expression, DC % CD33 [%] | Percent CD33 Surface Expression, Monocyte % CD33 [%] | Percent CD33 Surface Expression, Macrophage % CD33 [%] | Binder
25 | 83.1 | 91.1 |  | B1
26 | 43.4 | 41.8 | 47.5 | B2
27 | 66.9 | 96.5 | 97 | B3
28 | 22.8 | 38.3 | 50.8 | B4
29 | 59.1 | 71.9 |  | B5
30 | 88.7 | 85.9 |  | B6
31 | 84.2 | 87.6 |  | B7
32 | 85.5 | 92.4 |  | B8
33 | 21.7 | 29.3 | 41.8 | B9
34 | 28.4 | 36.1 | 47.5 | B10
35 | 75.9 | 90.4 |  | B11
36 | 83 | 91 | 98.6 | B12

target: T1, mouse CD33 Fc fusion protein; experiment: ForteBio BLI or MSD-SET

Row | binding result | Binder
37 | no binding (tested: 100 nM) | B1
38 | no binding (tested: 100 nM) | B2
39 | no binding (tested: 100 nM) | B3
40 | no binding (tested: 100 nM) | B4
41 | no binding (tested: 100 nM) | B5
42 | no binding (tested: 100 nM) | B6
43 | no binding (tested: 100 nM) | B7
44 | no binding (tested: 100 nM) | B8
45 | no binding (tested: 100 nM) | B9
46 | no binding (tested: 100 nM) | B10
47 | no binding (tested: 100 nM) | B11
48 | no binding (tested: 100 nM) | B12

target: T3, human CD33 Fc fusion protein (human, UniProt P20138 18-259); experiment: RBC adhesion to plate-bound CD33-Fc; antibody 0.5 ug/ml;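 also: Plate-coated CD33-Fc preincubated 1 h with antibody, then red blood cells added for 1 h at room temperature, adherent cells lysed and quantified via peroxidase activity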
T3 construct: also called hCD33-Fc; human CD33/Fc chimera (R&D Systems)
T3 sequence (P20138 18-259 limits assumed): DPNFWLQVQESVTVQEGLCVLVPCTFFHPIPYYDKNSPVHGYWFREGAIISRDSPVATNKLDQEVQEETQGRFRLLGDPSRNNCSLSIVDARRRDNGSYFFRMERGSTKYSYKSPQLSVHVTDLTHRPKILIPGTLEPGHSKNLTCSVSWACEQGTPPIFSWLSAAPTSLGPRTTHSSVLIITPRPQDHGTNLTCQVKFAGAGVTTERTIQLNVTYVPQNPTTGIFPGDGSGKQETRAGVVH

Row | Percent RBC Binding to CD33 [%] | Binder
49 | 45.7 | B1
50 | 36.2 | B2
51 | 122 | B3
52 | 13.3 | B4
53 | 31.6 | B5
54 | 72.6 | B6
55 | 61.4 | B7
56 | 85.5 | B8
57 | 11.3 | B9
58 | 29.4 | B10
59 | 96.8 | B11
60 | 102 | B12

target: T4, human monomeric His tagged CD33 protein (human, UniProt P20138 18-259); experiment: ForteBio BLI or MSD-SET, IgG, monomeric antigen;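 also: BLI: antibodies captured on AHQ sensors, 100 nM antigen association 5 min, dissociation 5 min, 1:1 fit. MSD-SET: antigen fixed at 50 pM, antibody titrated, quadratic fit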
T4 construct: also called hCD33-His
T4 sequence (P20138 18-259 limits assumed): as above

Row | Kd [nM] | Binder
61 | 11.2 | B1
62 | 7.7 | B2
63 | 3.29 | B3
64 | 13.4 | B4
65 | 30.9 | B5
66 | 4.63 | B6
67 | 11.1 | B7
68 | 13.5 | B8
69 | 22.1 | B9
70 | 7.04 | B10
71 | 62.6 | B11
72 | 8.94 | B12

target: T2, human CD33; experiment: flow cytometry, human primary macrophages;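 also: binding of CD33 antibodies at 10 µg/ml to human primary macrophages, 1 h on ice, detected with PE-labelled secondary antibody by flow cytometry, reported as MFI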

Row | Macrophage MFI | Binder
73 | 654 | B1
74 | 657 | B2
75 | 626 | B3
76 | 797 | B4
77 | 752 | B5
78 | 778 | B6
79 | 493 | B7
80 | 455 | B8
81 | 628 | B9
82 | 1260 | B10
83 | 313 | B11
84 | 871 | B12

target: T3, human CD33 Fc fusion protein; experiment: ForteBio BLI or MSD-SET, IgG, avid;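 also: Anti-CD33 IgG affinity by BLI, IgG captured on AHQ sensors with antigen in solution and a one-to-one kinetic fit, or by MSD solution equilibrium titration with quadratic fit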

Row | Kd [nM] | Binder
85 | 2.28 | B1
86 | 1.77 | B2
87 | 1.01 | B3
88 | 2.06 | B4
89 | 4.61 | B5
90 | 1.04 | B6
91 | 2.15 | B7
92 | 3.01 | B8
93 | 2.94 | B9
94 | 1.93 | B10
95 | 7.39 | B11
96 | 2.83 | B12

target: T3, human CD33 Fc fusion protein; experiment: RBC adhesion to plate-bound CD33-Fc; antibody 1.0 ug/ml;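 also: red blood cells adhering to plate-coated CD33-Fc after 1 h antibody pretreatment, then 1 h at room temperature, bound cells read as peroxidase activity after lysis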

Row | Percent RBC Binding to CD33 [%] | Binder
97 | 83.5 | B1
98 | 18.9 | B2
99 | 108 | B3
100 | 9.73 | B4
101 | 10.1 | B5
102 | 67 | B6
103 | 77.7 | B7
104 | 87.7 | B8
105 | 8.95 | B9
106 | 9.5 | B10
107 | 103 | B11
108 | 98.1 | B12

target: T2, human CD33; experiment: flow cytometry, human primary monocytes; set-up: reference not given here;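 also: binding of anti-CD33 antibodies at 10 ug/ml to human primary monocytes, 1 h on ice, detected by PE-labelled secondary antibody, flow cytometry readout as mean fluorescence intensity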

Row | Monocyte MFI | Binder
109 | 815 | B1
110 | 118 | B2
111 | 87 | B3
112 | 122 | B4
113 | 115 | B5
114 | 686 | B6
115 | 698 | B7
116 | 654 | B8
117 | 80 | B9
118 | 971 | B10
119 | 532 | B11
120 | 131 | B12
